Source: the supplement of paper PMC10567573

B1: TRIM35 (parent)
chain: DKELLCCSCQADPRHQGHRVQPVK

Variants of: B1
Experiment: protein stability index of a GFP-peptide fusion (GPS, HEK-293T) (PSI 1-6); higher = more stable
Conditions: c terminus: a fixed tail appended
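Note: lentivirally expressed fusions sorted by FACS into six bins by GFP to DsRed ratio, PSI derived from sequencing read proportions per bin multiplied by bin number.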

Protein stability index of substitutions, site by site:
L5: R 3.32 | K 3.58 | C 3.88 | I 3.76 | M 3.11 | T 4.29 | Y 2.93 | H 3.91 | F 3.55 | Q 4.36 | W 3.18 | A 3.65 | N 2.66 | E 4.08 | P 4.36 | S 4.44 | D 4.43
C6: W 2.29 | P 3.64 | L 3.41 | V 2.25 | K 4.36 | T 3.76 | F 2.99 | S 3.73 | A 3.61 | I 2.61 | Y 3 | M 3.74 | R 3.54 | H 4.45 | E 4.3 | N 3.87 | D 5.31
S8: C 4.16 | P 3.59 | G 4.14 | V 3.75 | W 2.5 | A 3.31 | L 2.98 | F 2.24 | D 4.28 | I 2.64 | Q 3.05 | K 3.78 | Y 2.97 | M 2.87 | E 4.61 | H 2.92 | N 3.62
K2: R 3.12 | H 3.51 | W 4.1 | Y 3.2 | V 3.53 | T 3.79 | Q 3.78 | M 3.65 | I 2.84 | N 3.95 | P 3.19 | L 3.18 | S 3.87
V20: H 4.69 | I 3.44 | F 3.48 | A 3.13 | D 4.14 | K 3.5 | E 4.04 | C 4.46 | G 4.15
C7: M 3.62 | N 4.1 | W 3.9 | K 3.88 | P 4.03 | G 4.23 | Q 4.5 | F 3.38 | E 4.44 | R 3.76 | H 4.03 | T 4.18 | A 4.12 | I 3.29 | L 3.66 | V 3.87 | D 4.67 | S 4.06 | Y 3.83
E3: S 3.94 | C 2.26 | A 2.92 | V 2.45 | N 3.68 | K 3.52 | D 3.4 | W 1.93 | H 2.47 | Y 2.46 | T 3.72 | M 2.12 | R 2.81 | Q 3.73 | F 2.34 | L 2.11 | P 3.09 | G 2.43 | I 2.51
H15: A 3.48 | M 2.96 | K 3.44 | G 3.15 | P 3.54 | N 3.33 | D 4.23 | I 2.99 | S 3.78 | V 2.95 | Q 3.02 | Y 3 | T 3.57 | W 3.33 | E 3.56 | L 3.52 | C 4.26 | F 3.62
L4: Y 3.8 | S 3.8 | V 4.33 | E 3.41 | I 2.52 | H 4.08 | D 4.47 | P 3.85 | K 4.07 | F 3.31 | N 2.58 | Q 4.36 | M 3.9 | W 2.68 | T 4.13 | R 3.7 | A 3.86 | G 4.47 | C 4.27
G17: Y 3.37 | S 3.66 | D 3.88 | N 3.82 | I 3.48 | M 2.88 | P 3.12 | K 3.99 | F 3.49 | E 4.17 | T 3.78 | W 2.67 | R 3.84 | A 3.19 | C 4.33 | L 3.35 | H 3.95 | Q 3.59 | V 3.08
R14: P 4.18 | S 3.58 | E 3.85 | K 3.37 | D 4.05 | H 3.69 | L 3.43 | G 3.03 | Q 3.75 | Y 3.35 | C 4.24 | W 2.46 | V 2.95 | F 3.35 | A 4.06 | T 3.52 | M 3.97 | N 4.13 | I 4.18
Q10: M 3.27 | D 4.1 | Y 3.49 | S 2.89 | W 2.53 | R 3.68 | L 2.85 | P 3.91 | I 3.87 | N 4.07 | C 3.38 | H 3.79 | A 3.41 | T 4.04 | K 3.8 | E 4.44 | G 2.6 | V 3.29 | F 3.01
R19: N 3.73 | V 3.84 | T 3.01 | S 3.73 | D 4.79 | Y 3.16 | P 3.73 | A 3.62 | Q 3.67 | G 3.63 | I 3.19 | C 3.63 | H 3.17 | K 3.56 | W 2.78 | F 2.66 | M 3.71 | L 3.52 | E 4.33
D12: W 3.48 | S 3.06 | V 3.21 | Q 3.4 | I 2.45 | M 2.72 | F 2.73 | P 2.78 | R 3.21 | Y 2.75 | A 3.52 | C 4.09 | T 3.01 | H 2.89 | L 2.53 | N 3.12 | G 3.13 | K 3.81 | E 3.78
C9: I 4.14 | D 5.29 | Q 4.65 | M 4.03 | G 4.1 | R 4.42 | T 4.28 | S 4.47 | K 4.64 | P 4.89 | V 3.27 | L 3.09 | N 4.6 | Y 4.52 | F 3.38 | E 4.87 | A 3.85 | H 4.1
Q16: M 2.66 | K 3.96 | V 2.88 | W 2.67 | P 3.66 | R 3.34 | D 3.98 | G 3.82 | N 3.33 | I 3.82 | Y 2.57 | H 3.58 | L 3.43 | C 4.54 | F 2.32 | E 3.87 | A 3.52 | S 3.72 | T 3.23
H18: D 3.91 | M 3.97 | G 4.1 | R 3.6 | P 2.6 | N 3.98 | L 3.65 | K 4.16 | Q 3.29 | C 2.75 | W 4.14 | T 3.88 | A 3.89 | S 4.38 | V 2.73 | I 3.9
A11: H 3.29 | M 2.76 | F 4.14 | Y 2.93 | P 3.87 | L 3.46 | I 3.52 | W 2.84 | K 4.3 | G 3.95 | D 4.08 | T 4.25 | R 3.85 | E 3.26 | C 3.23 | Q 3.41 | N 4.24 | S 3.67 | V 3.13
P13: T 3.34 | L 3.76 | R 3.41 | Q 3.88 | V 2.8 | N 3.79 | Y 2.79 | S 1.97 | M 2.71 | E 3.44 | W 2.31 | D 3.44 | I 3.69 | A 3.04 | C 4.78 | H 3.64 | G 3 | K 3.15 | F 2.31
